Test results taken from US20230331848A1 (BIOSION, published 2023).

T1: recombinant mouse PD-1-his protein (Cat#:50124-M08H, Sino Biological Inc) (mouse, UniProt Q02242 25-167)
T1 construct: Bought protein used in Biacore and indirect ELISA; not shown: his tag
T1 sequence (looked up): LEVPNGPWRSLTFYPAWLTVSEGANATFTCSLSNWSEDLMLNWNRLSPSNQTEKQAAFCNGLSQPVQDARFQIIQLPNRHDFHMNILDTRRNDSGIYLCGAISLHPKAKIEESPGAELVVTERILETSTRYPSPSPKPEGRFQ

T2: full length mouse PD-1 expressed on 293F-mouse PD-1 cells (mouse, UniProt Q02242 25-288)
T2 construct: also called cell surface mouse PD-1
T2 sequence: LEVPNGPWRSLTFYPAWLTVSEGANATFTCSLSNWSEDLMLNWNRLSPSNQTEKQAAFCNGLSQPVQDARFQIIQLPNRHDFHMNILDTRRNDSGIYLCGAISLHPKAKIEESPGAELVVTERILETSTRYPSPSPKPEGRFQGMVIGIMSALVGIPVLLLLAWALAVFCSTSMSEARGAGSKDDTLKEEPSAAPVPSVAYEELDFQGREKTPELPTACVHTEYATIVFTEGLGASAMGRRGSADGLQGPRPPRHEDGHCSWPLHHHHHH


Legend:
[1] = target: T3, in house made human PD-1-Fc protein (human, biotin-labeled (sites not given)); experiment: competitive ELISA: antibody pre-mixed with biotin-labeled human PD-1-Fc, added to coated human PD-L1-Fc (blocked ligand); unit from the axis 'Con of mAb, nM.'
T3 construct: also called biotin-labeled human PD-1-Fc
Procedure: The activities of the anti-PD1 antibodies of the disclosure to block PD-L1-PD1 binding were measured in a competitive ELISA.
Briefly, 100 μl human PD-L1-Fc protein (prepared in-house with SEQ ID NO: 28) at 2 μg/mL in carbonate/bicarbonate buffer (pH 9.6) was coated on 96-well micro plates overnight at 4° C., Plates were washed with wash buffer (PBS+0.05% w/v Tween-20, PBST), and blocked with 5% w/v non-fatty milk in PBST for 2 hours at 37° C. […] After incubation at 37° C. for 40 minutes, plates were washed using wash buffer. […] Plates were washed again using wash buffer. Finally, TMB was added and the reaction was stopped using 1M H₂SO₄. The absorbance was read on a microplate reader using dual wavelength mode with 450 nm for TMB and 630 nm as the reference wavelength, then the OD (450-630) values were plotted against antibody concentrations. Data was analyzed using Graphpad Prism software and IC₅₀ values were reported.

[2] = target: T1, recombinant mouse PD-1-his protein …; experiment: SPR (Biacore T200), antibody captured, PD-1-his in flow, 1:1 fit
Source text: The purified anti-PD-1 mouse monoclonal antibodies (mAbs) generated in Example 1 were characterized for binding affinities and binding kinetics by Biacore T200 system (GE healthcare, Pittsburgh, Pa., USA).
Briefly, Goat-Anti-Mouse IgG (Cat#: BR100838, GE healthcare, Mouse Antibody Capture Kit) was covalently linked to a CMS chip (carboxy methyl dextran coated chip, Cat#: BR100530, GE healthcare) via primary amines using a standard amine coupling kit (GE healthcare, Pittsburgh, Pa., USA) provided by Biacore. Un-reacted moieties on the biosensor surface were blocked with ethanolamine. A Protein G chip (Cat#:29-1793-15, GE healthcare) was used for the positive controls affinity determination. The anti-PD-1 antibodies of the disclosure and the two positive controls at the concentration of 2 μg/ml were respectively flowed onto the chip at a flow rate of 10 μl/min. Then, serially diluted recombinant human PD-1-his protein (Cat#:10377-H08H, Sino biological Inc.), cynomolgus PD-1-his protein (Cat#:PD1-05223, Acro biosystems Inc.) and recombinant mouse PD-1-his protein (Cat#:50124-M08H, Sino Biological Inc), 2-fold dilution in HBS-EP⁺ buffer (provided by Biacore) starting at 200 nM, were respecitvely flowed onto the chip at a flow rate of 30 μl/min. The antigen-antibody association kinetics was followed for 2 minutes and the dissociation kinetics was followed for 10 minutes. The association and dissociation curves were fit to a 1:1 Langmuir binding model using Biacore evaluation software.

[3] = target: T2, full length mouse PD-1 expressed on …; experiment: cell-based binding FACS on 293F-mouse PD-1 cells (MFI); unit from the axis 'Con of mAb, nM.'
Procedure: The binding activities of the mouse anti-PD-1 antibodies to mouse PD-1s expressed on cell surface were tested by flow cytometry (FACS), using Biosion in-house prepared 293F-mouse PD-1 cells expressing full length mouse PD-1 (SEQ ID NO.: 27) on cell membrane. The 293F-mouse PD-1 cells were prepared by transfecting 293F cells with a PCMV-T-P plasmid inserted with mouse PD-1 coding sequence between EcoR I and XbaI sites, following the instruction of lipofectamine 3000 transfection reagent (Thermo Fisher).
In specific, the 293F-mouse PD-1 cells and GS-J2/PD-1 cells were respectively harvested from cell culture flasks, washed twice and re-suspended in PBS containing 2% v/v Fetal Bovine Serum (FACS buffer). Then, 2×10⁵ cells per well were incubated in 96 well-plates with 100 μl of the anti-PD1 antibodies or controls at various concentrations for 40 minutes on ice. […] Following an incubation of 40 minutes at 4° C. in dark, cells were washed three times and re-suspended in FACS buffer. Fluorescence was measured using a Becton Dickinson FACS Canto II-HTS equipment and plotted against antibody concentrations. Data was analyzed using GraphPad Prism software and EC₅₀ values were reported.

IC50 [1] [nM]	Kd [2] [nM]	koff [2] [s⁻¹]	kon [2] [M⁻¹ s⁻¹]	EC50 [3] [nM]	Binder
0.45	150	0.031	207000	1.27	mouse anti-PD-1 monoclonal antibody E1A9C8A7 (antibody, V domains shown, Hybridoma-derived mouse mAb purified on Protein A; also called Mouse E1A9C8A7) VH: QVQLQQSGAEVVRPGVSVRISCKGSGYTFSDYVMHWMKQSHGESLEWIGVISTYHIPAVYNQKFKGKATMTVDKSSSTVYLELARLTSEDSAIYYCAREVYGDSYYFDVWGAGTTVTVSS VL: DVLMTQIPLSLPVSLGDQVSISCRSSQSIVHSNGNTYLEWYLQKPGQSPKLLIYKVSNRFSGVPDRFSGSGSGTDFTLKISRVEAEDLGVYYCFQGSHVPYTFGGGTKLEIK
0.428	29.8	0.00553	186000	0.87	mouse anti-PD-1 monoclonal antibody E2G4E10B7 (antibody, V domains shown, Hybridoma-derived mouse mAb; also called Mouse E2G4E10B7) VH: QVQLQQSGAELVRPGVSVKISCKGSGYTFTDYVMHWVRQSHAKSLEWIGVISTHFGDGVYNQKFKGKATMTVDKSSSTAYMELARLTSEDSAIYYCAREVYGDSWYFDVWGAGTTVTVSS VL: DVLMTQTPLSLPVSLGDQASISCRSSQSLVHSDGNTYLEWYLQKPGQSPKLLIYKVSNRFSGVPDRFSGSGSGTDFTLKISRLEAEDLGVYYCFQGSHVPYTFGGGTKLEIK
